Assay results: the RNAGym collection of RNA variant scans (doi:10.1021/acssynbio.7b00057)

B1: Pistol ribozyme (parent)
chain: GGGUCGUUGUUCCAUAAUCGCGUGGAUAUGGCACGCAAGUUUCUACCGGGCACCGUAAAUGUCCGACUGGAGCCGUUCGGGCGGCUAUAAACAGACCUCAGGCCCGAAGCGUGGCGGCACCUGCCGCCGGUGGUAAAAAAGAUCGGAAGAGCACACGUCU

Variants of: B1
Test: aptazyme ON/OFF ratio, guanine; higher = stronger switching; co-transcriptional cleavage with and without guanine

Point of comparison: U8A U10A U11C C12G, “aptazyme ON/OFF ratio” value 1.08. Against it:
- U8A G9U U11G C12A C13U — higher, 1.23
- U8A G9U U11G C12A C13G — higher, 1.41
- U8A G9U U11G C12A C13A — higher, 1.11
- U8A G9U U10A C12G C13U — higher, 1.33
- U8A G9U U10A C12G C13G — higher, 1.28
- U8A G9U U10A C12G C13A — higher, 1.34
- U8A G9U U10G U11G C12U — higher, 1.28
- U8A G9U U10G U11G C12G — higher, 1.27
- U8A G9U U10G U11G C12A — lower, 1.07
- U8A G9U U10C U11G C12A — lower, 1.05
- U8A G9U U10C U11G C12G — higher, 1.09
- U8A G9U U10C U11G C12U — higher, 1.18
- U8A G9U U10C C13U — higher, 1.15
- U8A G9U U10C C13A — the same, 1.08
- U8A G9U U10C C13G — lower, 1.04
- U8A G9U U11G C13U — higher, 1.24
- U8A G9U U11G C13G — the same, 1.08
- U8A G9U U11G C13A — higher, 1.14
- U8A G9U U10A U11A C12G C13U — higher, 1.38
- U8A G9U U10A U11A C12G C13G — higher, 1.32
- U8A G9U U10A U11A C12G C13A — higher, 1.27
- U8A G9U U11A C12A — higher, 1.28
- U8A G9U U11A C12G — higher, 1.09
- U8A G9U U11A C12U — higher, 1.47
- U8A U10A U11C C12U C13G — higher, 1.09
- U8A U10A U11C C12U C13U — lower, 1.06
- U8A U10A U11C C12U C13A — the same, 1.08
- U8A G9U U10C C12A — lower, 1.04
- U8A G9U U10C C12G — lower, 1.04
- U8A G9U U10C C12U — the same, 1.08
- U8A G9U U10C C12U C13A — the same, 1.08
- U8A G9U U10C C12U C13U — higher, 1.18
- U8A G9U U10C C12U C13G — lower, 1.07
- U8A G9U U10A C12U C13G — higher, 1.18
- U8A G9U U10A C12U C13U — higher, 1.13
- U8A G9U U10A C12U C13A — higher, 1.25
- U8A U10A U11C — lower, 1
- U8A U10A U11G — higher, 1.17
- U8A U10A U11A — higher, 1.14
- U8A U10A U11A C13G — higher, 1.16
- U8A U10A U11A C13U — lower, 1.06
- U8A U10A U11A C13A — higher, 1.12
- U8A G9U U10A U11C — lower, 1.03
- U8A G9U U10A U11G — higher, 1.42
- U8A G9U U10A U11A — higher, 1.67
- U8A G9U U11C C12U C13U — higher, 1.16
- U8A G9U U11C C12U C13G — lower, 1.06
- U8A G9U U11C C12U C13A — higher, 1.2
- U8A G9U U10G U11G C12G C13U — higher, 1.34
- U8A G9U U10G U11G C12G C13G — higher, 1.32
- U8A G9U U10G U11G C12G C13A — lower, 1.05
- U8A G9U U10G U11A C13U — lower, 1.03
- U8A G9U U10G U11A C13A — lower, 1.02
- U8A G9U U10G U11A C13G — lower, 1.03
- U8A U10A C12A C13A — higher, 1.19
- U8A U10A C12A C13G — the same, 1.08
- U8A U10A C12A C13U — higher, 1.18
- U8A G9U U10C U11C — lower, 1.04
- U8A G9U U10C U11G — higher, 1.34
- U8A G9U U10C U11A — higher, 1.34
- U8A G9U U10G U11C C13A — lower, 1.03
- U8A G9U U10G U11C C13U — lower, 1.02
- U8A G9U U10G U11C C13G — lower, 1.04
- U8A G9U C12G C13A — higher, 1.21
- U8A G9U C12G C13U — higher, 1.26
- U8A G9U C12G C13G — higher, 1.23
- U8A G9U U10G U11G C12A C13A — higher, 1.16
- U8A G9U U10G U11G C12A C13G — higher, 1.14
- U8A G9U U10G U11G C12A C13U — higher, 1.26
- U8A G9U U10G U11A C12U C13U — higher, 1.12
- U8A G9U U10G U11A C12U C13G — higher, 1.16
- U8A G9U U10G U11A C12U C13A — higher, 1.13
- U8A G9U U10G C13U — higher, 1.55
- U8A G9U U10G C13G — higher, 1.13
- U8A G9U U10G C13A — higher, 1.18
- U8A U10A C12A — higher, 1.11
- U8A U10A C12G — higher, 1.16
- U8A U10A C12U — higher, 1.11
- U8A G9U U10G C12G C13U — higher, 1.28
- U8A G9U U10G C12G C13G — higher, 1.15
- U8A G9U U10G C12G C13A — higher, 1.29
- U8A G9C U11G C13U — higher, 1.17
- U8A G9C U11G C13G — lower, 1.04
- U8A G9C U11G C13A — higher, 1.15
- U8A G9U U10G U11C C12G — lower, 1.07
- U8A G9U U10G U11C C12U — lower, 1.01
- U8A G9U U10G U11C C12A — lower, 1.04
- U8A G9U U10C U11G C12G C13U — higher, 1.11
- U8A G9U U10C U11G C12G C13A — higher, 1.15
- U8A G9U U10C U11G C12G C13G — higher, 1.11
- U8A G9U U10C U11G C12U C13A — higher, 1.11
- U8A G9U U10C U11G C12U C13G — higher, 1.14
- U8A G9U U10C U11G C12U C13U — higher, 1.25
- U8A G9U U10C U11A C12A C13G — higher, 1.12
- U8A G9U U10C U11A C12A C13U — higher, 1.17
- U8A G9U U10C U11A C12A C13A — higher, 1.14
- U8A U10A — lower, 1.07
- U8A G9U U10A U11C C12G C13U — higher, 1.34
- U8A G9U U10A U11C C12G C13A — higher, 1.14
- U8A G9U U10A U11C C12G C13G — higher, 1.12
- U8A U10A C13U — lower, 1.03
- U8A U10A C13G — lower, 1.06
- U8A U10A C13A — lower, 1.05
- U8A U10A U11G C12U C13G — higher, 1.45
- U8A U10A U11G C12U C13A — higher, 1.2
- U8A U10A U11G C12U C13U — higher, 1.4
- U8A U10A U11C C12A — higher, 1.09
- U8A U10A U11C C12U — lower, 1.01
- U8A G9U C12G — higher, 1.18
- U8A G9U C12U — higher, 1.46
- U8A G9U C12A — higher, 1.22
- U8A G9U U10C C12A C13A — higher, 1.09
- U8A G9U U10C C12A C13U — lower, 1.05
- U8A G9U U10C C12A C13G — lower, 1.06
- U8A G9U U10A U11C C12G — higher, 1.09
- U8A G9U U10A U11C C12U — higher, 1.11
- U8A G9U U10A U11C C12A — lower, 1.07
- U8A G9U U10C U11C C12U C13U — lower, 1.04
- U8A G9U U10C U11C C12U C13G — lower, 1.04
- U8A G9U U10C U11C C12U C13A — lower, 1.04
- U8A G9U U10C U11A C12G — lower, 1.06
- U8A G9U U10C U11A C12U — higher, 1.18
- U8A G9U U10C U11A C12A — higher, 1.11
- U8A G9U U10C — higher, 1.88
- U8A G9U U10A — higher, 1.31
- U8A G9U U10G — higher, 1.61
- U8A G9U U10C U11G C12A C13U — higher, 1.12
- U8A G9U U10C U11G C12A C13A — higher, 1.19
- U8A G9U U10C U11G C12A C13G — higher, 1.25
- U8A U10A U11G C12A C13G — higher, 1.3
- U8A U10A U11G C12A C13A — higher, 1.13
- U8A U10A U11G C12A C13U — lower, 1.07
- U8A G9U U10C U11C C12A C13U — lower, 1.04
- U8A G9U U10C U11C C12A C13A — lower, 1.01
- U8A G9U U10C U11C C12A C13G — lower, 1.05
- U8A G9U U11G C12U C13U — higher, 1.5
- U8A G9U U11G C12U C13G — higher, 1.19
- U8A G9U U11G C12U C13A — higher, 1.41
- U8A G9U U10G U11C C12A C13A — higher, 1.09
- U8A G9U U10G U11C C12A C13G — lower, 1.03
- U8A G9U U10G U11C C12A C13U — higher, 1.15
- U8A G9U U10G C12U — higher, 1.13
- U8A G9U U10G C12G — higher, 1.13
- U8A G9U U10G C12A — higher, 1.18
- U8A G9U U10C U11A C12G C13U — higher, 1.14
- U8A G9U U10C U11A C12G C13A — higher, 1.15
- U8A G9U U10C U11A C12G C13G — higher, 1.12
- U8A G9U U10A U11A C12A — higher, 1.36
- U8A G9U U10A U11A C12G — higher, 1.25
- U8A G9U U10A U11A C12U — higher, 1.32
- U8A G9U U10G U11C C12G C13A — the same, 1.08
- U8A G9U U10G U11C C12G C13U — higher, 1.12
- U8A G9U U10G U11C C12G C13G — lower, 1.07
- U8A G9U — higher, 2.15
- U8A U10A U11C C12A C13U — higher, 1.19
- U8A U10A U11C C12A C13A — the same, 1.08
- U8A U10A U11C C12A C13G — lower, 1.06
- U8A G9U U10A U11A C13A — higher, 1.29
- U8A G9U U10A U11A C13U — higher, 1.28
- U8A G9U U10A U11A C13G — lower, 1.07
- U8A G9U U11A — higher, 1.79
- U8A G9U U11G — higher, 1.63
- U8A G9U U11C — lower, 1.03
- U8A U10A U11A C12U C13U — higher, 1.17
- U8A U10A U11A C12U C13A — higher, 1.2
- U8A U10A U11A C12U C13G — higher, 1.09
